In the first assay the target is 53BP1 fragment (a.a. 1221-1718) fused to an adenylate cyclase fragment (two-hybrid) (UniProt Q12888).
Test: not given
For i53-DM (designed binder), the % GFP+ was determined as 0.1% and the percent GFP-positive E. coli cells, two-hybrid reporter, gate P5 was 0.1%.

Substance “i53-adenylate cyclase fragment fusion protein (two-hybrid) (designed binder)” had a percent GFP-positive E. coli cells, two-hybrid reporter, gate P5 of 9%.

For another assay the target is unchanged. As to the kind of experiment: cell-based or functional assay.
Regarding “i53 + S65R two-hybrid fusion (designed binder)”, the Experiment 1 Average Enrichment was determined as 1.14 log2, the Experiment 1 Rep 1 Enrichment was determined as 1.15 log2, the Experiment 1 Rep 2 Enrichment amounted to 1.13 log2 and the Experiment 2 Average Enrichment came out at 1.1 log2. Further, the Experiment 2 Rep 1 Enrichment was found to be 1.48 log2 and the Experiment 2 Rep 2 Enrichment stood at 0.72 log2.

In turn, “i53 + T7C two-hybrid fusion (designed binder)” had an Experiment 1 Average Enrichment of 1.2 log2, an Experiment 1 Rep 1 Enrichment of 1.16 log2, an Experiment 1 Rep 2 Enrichment of 1.23 log2 and an Experiment 2 Average Enrichment of 0.79 log2. Moreover, the Experiment 2 Rep 1 Enrichment was determined as 0.9 log2 and the Experiment 2 Rep 2 Enrichment was found to be 0.69 log2.

“i53 + T7I two-hybrid fusion (designed binder)” displayed an Experiment 1 Average Enrichment of 1.66 log2, an Experiment 1 Rep 1 Enrichment of 1.7 log2, an Experiment 1 Rep 2 Enrichment of 1.63 log2 and an Experiment 2 Average Enrichment of 1.03 log2. This substance returned an Experiment 2 Rep 1 Enrichment of 1.04 log2 and an Experiment 2 Rep 2 Enrichment of 1.02 log2.

For “i53 + T7L two-hybrid fusion (designed binder)”, the Experiment 1 Average Enrichment came out at 0.61 log2, the Experiment 1 Rep 1 Enrichment came to 0.62 log2, the Experiment 1 Rep 2 Enrichment amounted to 0.61 log2 and the Experiment 2 Average Enrichment is -0.19 log2. The Experiment 2 Rep 1 Enrichment was -0.07 log2 and the Experiment 2 Rep 2 Enrichment was -0.31 log2.

As to “i53 + T7V two-hybrid fusion (designed binder)”, the Experiment 1 Average Enrichment turned out to be 0.33 log2, the Experiment 1 Rep 1 Enrichment stood at 0.24 log2, the Experiment 1 Rep 2 Enrichment amounted to 0.42 log2 and the Experiment 2 Average Enrichment amounted to 0.02 log2. In addition, the Experiment 2 Rep 1 Enrichment was -0.04 log2 and the Experiment 2 Rep 2 Enrichment is 0.09 log2.

In the case of “i53 + T9E two-hybrid fusion (designed binder)”, the Experiment 1 Average Enrichment was -0.04 log2, the Experiment 1 Rep 1 Enrichment stood at 0.37 log2, the Experiment 1 Rep 2 Enrichment was -0.44 log2 and the Experiment 2 Average Enrichment turned out to be 0.33 log2. The substance further gave an Experiment 2 Rep 1 Enrichment of 0.02 log2 and an Experiment 2 Rep 2 Enrichment of 0.63 log2.

“i53 + T9I two-hybrid fusion (designed binder)” gave an Experiment 1 Average Enrichment of 0.46 log2, an Experiment 1 Rep 1 Enrichment of 0.3 log2, an Experiment 1 Rep 2 Enrichment of 0.61 log2 and an Experiment 2 Average Enrichment of 0.25 log2. In addition, the Experiment 2 Rep 1 Enrichment is -0.01 log2 and the Experiment 2 Rep 2 Enrichment was found to be 0.52 log2.

In turn, “i53 + T9S two-hybrid fusion (designed binder)” yielded an Experiment 1 Average Enrichment of 0.4 log2, an Experiment 1 Rep 1 Enrichment of 0.34 log2, an Experiment 1 Rep 2 Enrichment of 0.47 log2 and an Experiment 2 Average Enrichment of 0.18 log2. The Experiment 2 Rep 1 Enrichment stood at 0.19 log2 and the Experiment 2 Rep 2 Enrichment amounted to 0.17 log2.

Take “i53 + T9V two-hybrid fusion (designed binder)”: the Experiment 1 Average Enrichment was found to be 0.06 log2, the Experiment 1 Rep 1 Enrichment was 0.32 log2, the Experiment 1 Rep 2 Enrichment was -0.21 log2 and the Experiment 2 Average Enrichment is -0.15 log2. In addition, the Experiment 2 Rep 1 Enrichment was -0.36 log2 and the Experiment 2 Rep 2 Enrichment was 0.06 log2.

Turning to “i53 + T12Y two-hybrid fusion (designed binder)”, the Experiment 1 Average Enrichment turned out to be 0.25 log2, the Experiment 1 Rep 1 Enrichment is 0.14 log2, the Experiment 1 Rep 2 Enrichment amounted to 0.36 log2 and the Experiment 2 Average Enrichment was 0.35 log2. The substance also came in with an Experiment 2 Rep 1 Enrichment of 0.52 log2 and an Experiment 2 Rep 2 Enrichment of 0.17 log2.

The substance “i53 + T14D two-hybrid fusion (designed binder)” showed an Experiment 1 Average Enrichment of 2.88 log2, an Experiment 1 Rep 1 Enrichment of 2.9 log2, an Experiment 1 Rep 2 Enrichment of 2.86 log2 and an Experiment 2 Average Enrichment of 1.53 log2. The substance also yielded an Experiment 2 Rep 1 Enrichment of 1.65 log2 and an Experiment 2 Rep 2 Enrichment of 1.4 log2.

“i53 + T14H two-hybrid fusion (designed binder)” came in with an Experiment 1 Average Enrichment of 2.56 log2, an Experiment 1 Rep 1 Enrichment of 2.63 log2, an Experiment 1 Rep 2 Enrichment of 2.5 log2 and an Experiment 2 Average Enrichment of 1.65 log2. The substance further returned an Experiment 2 Rep 1 Enrichment of 1.47 log2 and an Experiment 2 Rep 2 Enrichment of 1.84 log2.

With “i53 + T14N two-hybrid fusion (designed binder)”, the Experiment 1 Average Enrichment was 2.76 log2, the Experiment 1 Rep 1 Enrichment is 2.84 log2, the Experiment 1 Rep 2 Enrichment came out at 2.69 log2 and the Experiment 2 Average Enrichment amounted to 1.44 log2. Besides, the Experiment 2 Rep 1 Enrichment amounted to 1.5 log2 and the Experiment 2 Rep 2 Enrichment is 1.37 log2.

Take “i53 + T55R two-hybrid fusion (designed binder)”: the Experiment 1 Average Enrichment was -0.06 log2, the Experiment 1 Rep 1 Enrichment was determined as 0.11 log2, the Experiment 1 Rep 2 Enrichment was -0.22 log2 and the Experiment 2 Average Enrichment was 0.12 log2. This substance returned an Experiment 2 Rep 1 Enrichment of 0.19 log2 and an Experiment 2 Rep 2 Enrichment of 0.05 log2.

The substance “i53 + V17C two-hybrid fusion (designed binder)” showed an Experiment 1 Average Enrichment of -1.08 log2, an Experiment 1 Rep 1 Enrichment of -2.27 log2, an Experiment 1 Rep 2 Enrichment of 0.12 log2 and an Experiment 2 Average Enrichment of 0.19 log2. The Experiment 2 Rep 1 Enrichment was found to be 0.6 log2 and the Experiment 2 Rep 2 Enrichment is -0.23 log2.

“i53 + V26L two-hybrid fusion (designed binder)”: the Experiment 1 Average Enrichment was determined as 0.55 log2, the Experiment 1 Rep 1 Enrichment turned out to be 0.4 log2, the Experiment 1 Rep 2 Enrichment came out at 0.69 log2 and the Experiment 2 Average Enrichment was 0.55 log2. This substance also gave an Experiment 2 Rep 1 Enrichment of 0.52 log2 and an Experiment 2 Rep 2 Enrichment of 0.58 log2.

With “i53-adenylate cyclase fragment fusion protein (two-hybrid) (designed binder)”, the GFP positive population, high selection pressure was 3%; the GFP positive population, low selection pressure was found to be 17%; the Percent GFP Positive Rep 1 worked out at 9%; the Percent GFP Positive Rep 2 stood at 7.6%. Also, the Percent GFP Positive Rep 3 worked out at 11.8%.
